What was measured:
[1] = target: Vα24+ NKT TCR clone J24L.17 (iNKT TCR, Vα24-Jα18/Vβ11) (human); test: SPR; same curves as the kinetic analysis plus 9 µM and 27 µM CD1d–αGalCer; TCR on the chip; equilibrium analysis
[2] = target: Vα24+ NKT TCR clone J24L.17 (iNKT TCR, Vα24-Jα18/Vβ11) (human); test: SPR; BIAcore 3000; 300 RU of TCR captured on a Ni-NTA sensor chip, surface blocked with recombinant IgFc; CD1d–αGalCer injected (0, 0.037, 0.111, 0.333, 1, 3 µM for kinetics; series up to 27 µM) at 30 µl/min in 10 mM Hepes pH 7.4, 150 mM NaCl, 0.005% Tween-20; kinetic analysis, Langmuir 1:1 model
[3] = target: human CD1d construct with C-terminal 3C protease site and 6X-Histidine tag, loaded with α-galactosylceramide (form used for SPR), P15813;P61769; test: SPR; conditions: read off a plot; for kon: parent: est. 1.3e4; for koff: parent: est. 0.34

Substance	Kd [1]	Kd [2]	koff [2]	kon [2]	kon [3]	Kd [3]	koff [3]
human CD1d construct with C-terminal 3C protease site and 6X-Histidine tag, loaded with α-galactosylceramide (form used for SPR) (from UniProt P15813 20-335; P61769 21-119) (complex)	1.9 µM	2.1 µM	0.414 s⁻¹	194000 M⁻¹ s⁻¹			
Vα24− TCR J24.N22 (Vα3.1-Jα18/Vβ11), soluble heterodimer with zippers and His tags N51A					12000 M⁻¹ s⁻¹	3.4 µM	
Vα24− TCR J24.N22 (Vα3.1-Jα18/Vβ11), soluble heterodimer with zippers and His tags S97A					30000 M⁻¹ s⁻¹	1.7 µM	0.52 s⁻¹
Vα24− TCR J24.N22 (Vα3.1-Jα18/Vβ11), soluble heterodimer with zippers and His tags S50A					23000 M⁻¹ s⁻¹	1.7 µM	0.38 s⁻¹
Vα24− TCR J24.N22 (Vα3.1-Jα18/Vβ11), soluble heterodimer with zippers and His tags N29A					3700 M⁻¹ s⁻¹	24 µM	0.89 s⁻¹
Vα24− TCR J24.N22 (Vα3.1-Jα18/Vβ11), soluble heterodimer with zippers and His tags S27A					12000 M⁻¹ s⁻¹	4.2 µM	0.51 s⁻¹

From paper PMC3479090
